Reference: the nanobody polyreactivity screen of Harvey et al. (2022)

Test: yeast display, Sf9 membrane polyspecificity reagent, FACS + sequencing; frameworks hold sequencing errors
Method in brief: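 Polyreactivity labels are assigned by the sorting gate from which each nanobody was recovered. The gates were low and high (top ~1%), set on anti-HA fluorescence for expression and streptavidin fluorescence for reagent binding. Before sorting, galactose-induced (36–48 hours) yeast display cells were stained for 1 hour at 4 °C with 10% biotinylated, detergent-solubilized Sf9 membrane reagent.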

Sequence | polyreactivity (PSR sort gate)
QVQLVESGGGLVQAGGSLRLSCAASGSIFYENVMGWYRQAPGKERELVAGISRSGGRTYYADSVKGRFTISRDNAKNTVYLQMNSLIPEDTAVYYCNAARVYLSEWGQGTQVTVSS | high polyreactivity
QVQLVESGGGLVQAGGSLRLSCAASGFTFGGNVMGWYRQAPGTERELVAAITYSGGSTYYADSVKGRFTISRDNAKNTVYLQMNSLIPEDTAVYYCNADATDSYPEKDEHDSWGQGTQVNVSS | low polyreactivity
QVQLVESGGGLVQAGGSLRLSCAASGRIFHYYAMGWYRQAPGIERELVAAIRYSGGRTYYADSVKGRFTISRDNAKNTVYLQMNSLKPEDTAFYYCNAVPYVYKTITGDDYWGQGTQVTVSS | high polyreactivity
QVQLVESGGGLVQAGGSLRLSCAASGSILRRYAMGWYRQAPGKEREFVAAISYSGSRTYYADSVKGRFTISRDNAKNTVYLQMNSLKPEDTAVYYCAADSYGSRYEYWGQGTQVTVSS | high polyreactivity
QVQLVESGGGLVQAGGSLRLSCAASGFISFGNAMGWYIQAPGKERELVAGISRSGGSTYYADSVKGRFTISRDNAKNTVYLQMYSLKPEDTAVYYCATRVAIYPYRFDYWGQGTQVTVSS | high polyreactivity
QVQLVESGVGLLQAGGILRISCASSGITFAWYAMVRYRQAPGKERELVAAIDDRGGSTYYADSVKGRFTISRDNAKNTVYFQMNSLKPEDTAVFYCNADTPSYEPYRLDYWGHGTQVTVSS | low polyreactivity
QVQLVESGGGLVQAGGSLRLSCAASGRTFRRYAMGWYRQAPGKERELVATITNAGSTYYADSVKGRFTISRDNAKNTVYLQMNSLKPEDTAVYYCAARVPYISDYWGQGTQVTVSS | low polyreactivity
QVQLQESGGGLVQVGGSLRLSCPSSGTIFIYGFLGWNRQAPGKERELVASINLGGITNYADSVKGRCTISRDNAKNTVNLQMISLKPEDTAVYYCATYVVTGQNYGYWGQGTQVTVSR | low polyreactivity
QVQLVESGGGLVQAGGSLRLSCAASGRTFTKYAMGWYRQAPGKERELVAGITRRGGNTYYADSVKGRFTISRDNAKNTVYLQMNSLKPEDTAVYYCAATLFYTGSRFRYYYWGQGTQVTVSS | high polyreactivity
QVQLVESGGGLVQAAGSLRLSCAASGNTFRWYVMGWYRQAPGKERELVAAITSSGSNTYYADSVKGRFTISRDNAKNTVYLQMNSLKPEDTAVYYCAARNYGPYDYWGQGTQVTVSS | low polyreactivity
QFHLVESGRDFVQAAGSLLLSCAASASIFRYYTMGWYRQAPGKETELVATITDRGTSTYDADSVKGRFTLSRESV | high polyreactivity
QVQLVESGGGLVQAGCSLRLSCAASGSTFTTNAMGWYRQAPGKEREFVAAITSSGGSTYYADSVKGRFTISRDNAKNTVYLQMNSLKPEDNAVYYCNADGDPSQKLFGRSYDYWGQGTQVNVSS | low polyreactivity
QVQLVESGGGLVQAGGSLRLSCAASGRTFRQYAMGWYRQAPGKERELVATISGGGGNTYYADSVKGRFTISRDNAKNTVYLQMNSLKPEDTAVYYCAARRRDRPVRGYDYWGQGTQVTVSS | high polyreactivity
QVQLVESGGGLVQAGGSLRLSCADSGRTFTRYAMGWYRQAPGKERELVAAISYIGGGTYYADSVKGRFTISRDNAKNTVYLQMNSLKPEDTAVYYCAGYSRQAEYEYWGQGTQVTVSS | high polyreactivity
QVQLVESGGGLVQAGGSLRLSCAASGYIFYHYAMGWYRQAPGKERELVATISLGGGRTYYADSVKGRFTISRDTAKNTVYLQMNSLKPEDTAVYYCAADDGPGFDYWGQGTQVTVSS | high polyreactivity
QVQLVESGGGLVQAGGSLRLSCAASGFIFAFYDMGWYRQAPGKERELVAAISWGGSTYYADSVKGRFTISRDNAKNTVYLQMNSLKPQDTAVYYCAARLSRSYRYGYWGQGTQVTVSS | high polyreactivity
QVQLVESVGGLVQAGGSLRLSCAASGRTFRTYTMGWYRQAPGKERELVAAIRSSGGRTYYADSVKGRFTISRDNAKNTVYLQMNSLKPEDTAVYYCAREYRGALHYYYCGQGTQVTVSS | high polyreactivity
QVHLVESVGGLVQAGGSLRLSSAASGSTFGYYAMGWYRQAPGKERELVAAINARGGSTYYADSVKGRFTISRDNAKNTVYLQMNSLKPEDTAVYYCAAVHIYSYGIYDYWGQGTQVTVSS | high polyreactivity
QVQLVESGGGLVQAGGTLRLSCAASGRIFQYYDMGWYRQAPGKERELVAAITFSGGSTYYADSVKGRFTISRDNAKNTVYLQMNSLKPEDTAVYYCARGYWVYYPDGDYWGQGTQVTVSS | low polyreactivity
QVQLVESGGGLVQAGGSLRLSCAASGSIFSSNVMGWYRQAPGKERELVAAITVRGSRTYYADSVKGRFTISRDNAKNTVYLQMNSLKPEDTAVYYCNAVARVLGSDRRLQYYYWGQGTQVTVSS | high polyreactivity
QVQLVESGGGLVQAGGSLRLSCAASGSIFYWNVMGWYRQAPGKERELVAGISTSVGNTYYADSVKGRFTISRDNAKNTVYLQMNSLKPEDTAVYYCNVAGKQKPYYVTTRLDYWGQGTQVTVSS | high polyreactivity
QVQLVESGGGIVQAGGSLRLSCAASGSILYPYAMGWYRQAPGKERELVAAISRGGSTNYADSVKGRFTISRDNAKNTVYLQMNSLKPEDTAVYYCATAYTRFSQRYEYYVIYWQNDYWGQGTQVTVSS | low polyreactivity

Sequence | polyreactivity (PSR sort gate)
QVQLVESGGGLVQAGGSLRLSCAASGSIFKYYAMGWYRQAPGKERELVAAISRSGTSTYYADSVKGRFTISRDNAKNTVYLQMNSLKPEDTAVYYCNAVGISQFAKYGWRYDYWGQGTQVTVSS | high polyreactivity
QVQLVESGGGLVQAGGSLRLSCAASGSILNIYTMGWYRQAPGTERELVAAITSGDITYYADSVKGLFTISRDNAKNTVYLQMISLKPEDTAVYYCAADASSQINEWLSYGEGYNYWGQGTQVTVSS | low polyreactivity
QVQLVESGGGLVQAGGSLRLSCAASGSTFLWNAMGWYRQAPGKERELVAAISYSGGSTYYADSVKGRFTISRDNAKNTVYLQMNSLKPEDTAVYYCAKEWFYDPYPPGYDYWGQGTQVTVSS | low polyreactivity
QVQLVESGGGLVQAGGSLRLSCAASGLIVQVYDMGWYRQAPGKEMELVAAISSGSNTNYADSVKGRFTISRDNAKNTVYLLMNSLKPEDTAVYYCAASWGYGALTPDMGYWGQGTQVTVSA | low polyreactivity
QVQLVESGGGLVQAGGSLRLSCAASGRIFPVYTMGWYRQAPGKERELVAAISGNGASTYYADSVKGRFTISRDNAKNTVYLQMNSLKPEDTAVYYCAAYFYYWGSTFVRYEYWGQGTQVTVSS | high polyreactivity
QVQLVESGGGLVQAGGSLRLSCAASGSTFAANAMGWYRQAPGKERELVAGISESGDRTYADSVKGRFTISRDNPKNTVYLQMNSLKPEDTAVYYCNVGANVYLLYFPSRGGVYDYGYWGQGTQVTVSS | low polyreactivity
QVQLVESGGGLVQAGGSLRLSCSASGLIFGNYAMGWYRQAPGKERELVAAITSTGITYYADSVKGRFTISRDNAKNTVYLQMNSLKPEDTAVYYCAAASRFHPDRGGYWGQGTQVTVSS | low polyreactivity
QVQLVESGGGLVQAGGSLRLSCAASGFTIFLNAMGWYRQAPGKERELVAAITVSGSSTYYADSVKGRFTISRDNAKNTVYLQMNSLKPEDTAVYYCNAEIYSPYYTYDYWGQGTQVTVSS | low polyreactivity
QVQLVESGGGLVKAVGSLRLSCAPSGRISGVYAMGWYRQAPGKERELVAAISWSGGPTYYADSVKGRFTISRDNAKNTFYLEMTSLKPEDTAVYYCNGDTGFRSYLRVYWGQGTQVTVSS | low polyreactivity
QVQLVDSGGGLVQAGGSLRLSCAASGSNFDDYAMGWYRQAPGKERELVAAISSSGTSTYYADSVKGRFTISRDNAKNTVYLQMNSLKPEDTAVYYCAAKKKYHYVASYKRFEYWGQGTQVTVSS | low polyreactivity
QVQLVESGGGLVQAGGSLRLRCAASGSNFNPYAMGWYRQAPGKERELVAAINSRGGSTYYADSVKGRFTISRDNANNTVYLQMNSLKPQDTAVYYCAARTRRRTSAYEYWGQGTQVTVSS | high polyreactivity
QVQLVESGGGLVQAGGSLRLSCAASGSTFQYNDMGWYRQAPGKERELVAAISSSGGSTSYADSVKGRFTISRDNAKNTVYLQMNSLKPEDTAVYYCAASYPGYHLYRDDYWGQGTQVTVSS | low polyreactivity
QVQLVESGGGLVQAGGSLRLSCAASGFTFYRYAMGWYRQAPGKERELVAAISWSGGTTYYADSVKGRFTISRDNAKNTVYLQMNSLKPEDTAVYYCNARFIARSGYKVDYDYWGQGTQVTVSS | high polyreactivity
QVQLVESGGGLVQAGGSLRLSCAASGSIFAWYVMGWYRQAPGKERELVAGIDTSGGSTFYADSVKGRFTISRDNAKNTVYLQMNSLKPEDTAVYYCAADTWFRGPWEFDYWGQGTQVTVSS | low polyreactivity
QDPLEESGGGLVQAGGSLRLSCAASGFTFTDYAMGWTRQAPGKERQLVAVISRSGGSTNYADSVKGRFTISRDKAKNTVYLQMNCLKPEDTAVYYCNAGKYLYRHGFLSSGDMYYWGQGTQVTVSS | high polyreactivity
QVQLVESGVGLYQAGGSLRLSCAASGSIFEENAMVWYRQAPGKEMELVAAITIGGRTNYADSVKGRFTISRDNAKNTVYLEMNSLKPEDTAVYYCASDLSSIKYWLFWTRYYYWGQGTQVNVSS | low polyreactivity
QVQLVESGGGLVQAGGSLRLSCAASGYTFKAYAMGWYRQAPGKERELVGGISRSGGSTYYADSVKGRFTISRDNAKNTVYLQMNSLKPEDTAVYYCAADSFSWETVVPSVFEFDYWGQGTQGTVSS | low polyreactivity
QVQLVVSGGGLVQAGGSLRLSCAASGSILDSNAMGWYRQAPGKERELVAAITSGGSTYYADSVKGRFTISRDNAKNTVYLQMNSLKPEDTAVYYCNANGVQYFLYGYWGQGTQVTVSS | low polyreactivity
QVQLVESGGGLVQAGGSLRLSCAASGFTFIPNAMGWYRQAPGKERELVADITWSGGTTYYADSVKGRFTISRDNAKNTVYLQMNSLKPEDTAVYYCNADYLFYAFDYWGQGTQVTVSS | low polyreactivity
QVQLVESGGGLVQAGGSLRLSCAASGRIFYRNTMGWYRQAPGKERELVAPITSSGASTYYADSVKGRFTISRDIAKNTVYLQMNSLKPEDTAVYFCGAQPYVEGTKRYYWGQGTQVTVSS | high polyreactivity
QVQLLESGGGLVQAGGSLRLSCAASGSNFSSYAMGWSRQAPGTERELVASISRRGGSTYYADSVKGRFTISRDNAKNTVYLQMNSLKPEDTAVYYCNASGGPYRYYYWGQGTQVTVSS | low polyreactivity
